Experimental data as given in publication PMC8519433.

Assays:
[1] = target: human CXCR1 on transfected L1.2 cells (human) (UniProt P25024)
[2] = target: CXCL8 (6-77), produced in-house (human); test: SEC-MALS; CXCL8 at 4.2 mg/ml (0.5 mM), Superdex 75 10/300 GL, 20 mM Na phosphate pH 6.5, 100 mM NaCl, room temperature; a single species

human CXCR1 on transfected L1.2 cells (human), sequence (P25024 whole entry): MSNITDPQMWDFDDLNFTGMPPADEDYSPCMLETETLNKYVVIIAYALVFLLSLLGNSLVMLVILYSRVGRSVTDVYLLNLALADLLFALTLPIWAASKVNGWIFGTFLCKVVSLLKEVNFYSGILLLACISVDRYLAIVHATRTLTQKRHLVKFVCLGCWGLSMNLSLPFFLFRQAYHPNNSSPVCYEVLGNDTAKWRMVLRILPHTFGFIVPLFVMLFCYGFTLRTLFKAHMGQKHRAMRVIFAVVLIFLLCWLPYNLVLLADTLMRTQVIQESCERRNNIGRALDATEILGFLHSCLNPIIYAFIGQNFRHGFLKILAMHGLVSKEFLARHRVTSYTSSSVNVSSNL

chemotaxis of CXCR1-transfected L1.2 cells (modified Boyden chamber, 5 h), serial dilutions of CXCL8, bell-shaped response; percentage of cells migrated at the optimal concentration [1] [%] | stoichiometry N [2] | Substance
20 | 2 | CXCL8 (6-77), produced in-house (ligand)
20 | – | Recombinant CXCL8 (6-77), commercially available (ligand)
